Test [1] concerns the target Hcp (purified) (Acinetobacter baylyi). In words: mass photometry.
Test [2] shares this target. In words: flow-induced dispersion analysis.
Test [3] addresses TagF, DyLight 488 labelled (Acinetobacter baylyi). The test is described as follows: flow-induced dispersion analysis.

In turn, Hcp (purified) (natural protein) showed a percent of Hcp present as hexameric complex in test [1] above 93%. The stoichiometry N in test [1] and in test [2] was 6 each time. The substance also displayed a dissociation constant (Kd) in test [3] of 30.4 µM.

As a reminder, the stoichiometry N is a count of units in the complex or per binding partner. In general, Kd refers to the free concentration of one partner at which half of the binding sites on the other are occupied at equilibrium, for simple one-to-one binding.

The record behind these values is article doi:10.64898/2025.12.08.692957.
